Here are results for four molecules from patent US20240425593A1 (SICHUAN KELUN BIOTECH BIOPHARMACEUTICAL, published 2024).

Experiment [1] addresses T1, human PD-1-hFc (human, UniProt Q15116 25-170).
T1 construct: extracellular domain; Extracellular domain of human PD-1 fused to an hFc tag, made in house; not shown: hFc tag
Kind of experiment: ELISA, coated human PD-1-hFc. The procedure: (§1) In order to verify the binding affinity of murine anti-PD-1 antibody to human PD-1-hFc and monkey PD-1-hFc, ELISA was used. The specific experimental steps are as follows: human PD-1-hFc and monkey PD-1-hFc were diluted to 1 μg/mL with CBS solution, and then coated on a 96-well ELISA plate (purchased from Guangzhou Jiete Bio) at 4° C. overnight. […] After washing, a goat anti-mouse secondary antibody (FC) labeled with horseradish peroxidase diluted in phosphate buffer (PBS) containing 2% BSA in a ratio of 1:15000 was added, followed by incubating at 37° C. for 1 hour. After washing, the TMB chromogen solution was used for developing, and the absorbance value was read using a microplate reader at 450 nm. The data were imported into Graphprism to calculate the EC₅₀ value.
In general terms: In an ELISA, binding on a coated surface is turned into a signal by an enzyme label.

The target of experiment [2] is T2, monkey PD-1-hFc (monkey).
T2 construct: Extracellular domain of monkey PD-1 fused to an hFc tag, made in house; not shown: The hFc tag and any linker
T2 chain: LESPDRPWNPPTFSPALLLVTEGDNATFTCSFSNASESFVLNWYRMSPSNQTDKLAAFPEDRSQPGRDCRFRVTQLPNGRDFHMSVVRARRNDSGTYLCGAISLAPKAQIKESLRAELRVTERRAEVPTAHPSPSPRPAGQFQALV
Put plainly: ELISA, coated monkey PD-1-hFc. The procedure: as §1

Experiment [3] has as its target T1, human PD-1-hFc. Kind of experiment: competitive ELISA, coated human PD-1-hFc, competitor biotinylated PD-L1-mFc. The procedure: (§2) The specific experimental steps were as follows: human PD-1-hFc antigens were diluted to 1 μg/mL with CBS solution, then coated on a 96-well ELISA plate (purchased from Guangzhou Jiete Bio) at 4° C. overnight. […] After washing, streptavidin labeled with horseradish peroxidase diluted in phosphate buffer (PBS) containing 2% BSA in a ratio of 1:15000 was added, followed by incubating at room temperature for 1 hour. After washing, the TMB chromogen solution was used for developing, and the absorbance value was read using a microplate reader at 450 nm, and the data were imported into Graphprism to calculate the IC₅₀ value.

For experiment [4], the target named is T3, full-length human PD-1 on CHO-hPD-1 cells (human, UniProt Q15116 25-288).
T3 construct: whole, on cells; also called PD-1 on the cell membrane surface of CHO-hPD-1
Kind of experiment: flow cytometry on CHO-hPD-1 cells. From the text:
(§3) In order to verify the binding of anti-human PD-1 murine antibody to PD-1 on the cell membrane surface, FACS technology was used to detect the affinity between murine antibodies and CHO-hPD-1 cells.

Experiment [5] has as its target T3, full-length human PD-1 on CHO-hPD-1 …. Put plainly: flow cytometry on CHO-hPD-1 cells, FITC anti-mouse IgG secondary antibody.
Text: as §3
In general terms: In flow cytometry, cells or beads pass a laser one at a time.

Experiment [6] has as its target PD-1 on Jurkat-PD-1-NFAT cells (UniProt Q15116 25-288, limits assumed). Put plainly: cell-based or functional assay.
Experiment [7] has as its target T4, human PD-1-His (human, UniProt Q15116 25-170).
T4 construct: extracellular domain; not shown: His tag
Put plainly: ELISA, coated human PD-1-his. The procedure:
To verify the affinity of the humanized PD-1 antibody to PD-1-His antigen, ELISA was employed. The specific experimental steps were as follows: human PD-1-his was diluted to 1 μg/mL with CBS solution, then coated on a 96-well ELISA plate (purchased from Guangzhou Jiete Bio) at 4° C. overnight. […] After washing, a goat anti-mouse secondary antibody (FC) labeled with horseradish peroxidase diluted in phosphate buffer (PBS) containing 2% BSA in a ratio of 1:15000 was added, followed by incubating at 37° C. for 1 hour. After washing, the TMB chromogen solution was used for developing, and the absorbance value was read using a microplate reader at 450 nm. The data were imported into Graphprism to calculate EC₅₀ values.

For experiment [8], the target named is T2, monkey PD-1-hFc. Kind of experiment: ELISA, coated monkey PD-1-hFc. The procedure: as §2, with “human PD-1-hFc and monkey” for “human”, “a goat anti-human secondary antibody (FC)” for “streptavidin”, “37° C.” for “room temperature”, “EC₅₀ values.” for “the IC₅₀ value.”
Experiment [9] has as its target T4, human PD-1-His. Put plainly: BLI (Octet ForteBio), human PD-1-His.
The target of experiment [10] is T1, human PD-1-hFc. Kind of experiment: competitive ELISA, coated PD-1-hFc, competitor PDL1-mFc. How it is done: as §2, with “was” for “antigens were”, “solution,” for “solution, then”, “overnight. After washing, 100 μL of phosphate buffer (PBS) containing 2% BSA was used for blocking at 37° C. for 1 hour.” for “overnight.”, “a goat anti-mouse secondary antibody” for “streptavidin”, “HRP” for “horseradish peroxidase”, “ICs values.” for “the IC₅₀ value.”

Experiment [11] addresses T1, human PD-1-hFc. Put plainly: competitive ELISA, coated PD-1-hFc, competitor PDL2-mFc. The procedure: as §2, with “was” for “antigens were”, “solution,” for “solution, then”, “overnight. After washing, 100 μL of phosphate buffer (PBS) containing 2% BSA was used for blocking at 37° C. for 1 hour.” for “overnight.”, “a goat anti-mouse secondary antibody” for “streptavidin”, “HRP” for “horseradish peroxidase”, “ICs values.” for “the IC₅₀ value.”

For experiment [12], the target named is T3, full-length human PD-1 on CHO-hPD-1 …. Put plainly: competitive FACS on CHO-hPD-1 cells, competitor PD-L1-mFc-Bio. From the text:
The data were imported into Graphprism to calculate IC₅₀ values.

Experiment [13] concerns the target T1, human PD-1-hFc. Put plainly: competitive ELISA, coated human PD-1-hFc, competitor hPD-L1-mFc. The procedure: as §2, with “was” for “antigens were”, “solution,” for “solution, then”, “overnight. After washing, 100 μL of phosphate buffer (PBS) containing 2% BSA was used for blocking at 37° C. for 1 hour.” for “overnight.”, “a goat anti-mouse secondary antibody” for “streptavidin”, “HRP” for “horseradish peroxidase”, “ICs values.” for “the IC₅₀ value.”

Experiment [14] deals with T1, human PD-1-hFc. Kind of experiment: competitive ELISA, coated human PD-1-hFc, competitor hPD-L2-mFc. How it is done:
as §2, with “was” for “antigens were”, “solution,” for “solution, then”, “overnight. After washing, 100 μL of phosphate buffer (PBS) containing 2% BSA was used for blocking at 37° C. for 1 hour.” for “overnight.”, “a goat anti-mouse secondary antibody” for “streptavidin”, “HRP” for “horseradish peroxidase”, “ICs values.” for “the IC₅₀ value.”

The target of experiment [15] is T4, human PD-1-His. Kind of experiment: BLI (Octet ForteBio), antibody on ProA biosensor, PD-1-His in solution. For orientation: BLI is a label-free optical method that tracks binding on a fibre tip over time.
In experiment [16] the target is T4, human PD-1-His. Put plainly: BLI (Octet ForteBio), antibody on ProA biosensor, human PD-1-His in solution.
The next experiment concerns the target T5, human PD-1-ECD-mFc (human; mouse, UniProt Q15116 25-170).
T5 construct: extracellular domain; Made in HEK293F cells; also called human PD-1-mFc; PD-1-mFc; not shown: mouse Fc (mFc) amino acids, AB097847.1
Put plainly: ELISA, coated antigen (column head: Human PD-1-mFc; text of Example 4.2: human PD-1-hFc). How it is done:
as §2, with “human PD-1-hFc and monkey” for “human”, “a goat anti-human secondary antibody (FC)” for “streptavidin”, “37° C.” for “room temperature”, “EC₅₀ values.” for “the IC₅₀ value.”

Where two headings read alike, the source gives them in different places.

T3 sequence (Q15116 25-288): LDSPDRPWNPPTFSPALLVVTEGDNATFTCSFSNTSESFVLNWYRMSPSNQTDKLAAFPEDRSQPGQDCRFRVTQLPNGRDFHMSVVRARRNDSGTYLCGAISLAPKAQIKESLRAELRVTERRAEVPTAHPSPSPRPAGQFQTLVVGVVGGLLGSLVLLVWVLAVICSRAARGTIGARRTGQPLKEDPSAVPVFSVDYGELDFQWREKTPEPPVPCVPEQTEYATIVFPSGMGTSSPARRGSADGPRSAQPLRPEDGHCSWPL
T1 sequence (Q15116 25-170): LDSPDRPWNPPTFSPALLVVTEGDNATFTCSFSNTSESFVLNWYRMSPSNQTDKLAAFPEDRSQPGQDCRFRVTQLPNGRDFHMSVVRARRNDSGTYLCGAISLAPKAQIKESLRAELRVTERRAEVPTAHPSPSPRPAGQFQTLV
T4 sequence (Q15116 25-170): as above
Sequence of PD-1 on Jurkat-PD-1-NFAT cells (Q15116 25-288 limits assumed): as the sequence (Q15116 25-288) above
T5 sequence (Q15116 25-170): as the sequence (Q15116 25-170) above

B1: murine antibody 91D5 (antibody, V domains shown)
VH: EVQLQQSGPELVKPGASVKISCRASGYTFTDYYMNWVKESHGKSLEWIGEINPKYGDTTYNQKFKDKATLTVDKSSSTASVELRSLTSEDSAVYYCAKGIRLFDSWGQGTTVTVSS
VL: DIQLTQSPASLSASVGETVTITCRPSGNVHNYFAWYQQKQGKSPQLLVYNAKTLAEGVPSRFSGSGSGTQYSLKINSLQPEDFGTYYCHHYYTAPFTFGSGTKLEIK
notes: Murine antibody from a hybridoma
In general, EC50 refers to the midpoint of the concentration-response curve. As a reminder, the IC50 is the concentration needed to halve the response being measured. Consider B1, for which the results for the concentration giving a half-maximal response (EC50) with human PD-1-hFc [1] and in the experiment with monkey PD-1-hFc [2] were 0.044 nM and 0.0685 nM, respectively. Besides, the IC50 in the experiment with human PD-1-hFc [3] turned out to be 4.25 nM.

B2: murine antibody 42G1 (antibody, V domains shown)
VH: QVQLKESGAELAKPGASVKMSCEASGYALTSYWMHWVKQGPGQGLEWIGYIHPSTGYTEYNQIFEDKATLSADKSSNTAYMQLTSLTSDDSAVYYCARGAGPYYFDYWGQGTTLTVSS
VL: DIQLTQSPSSLAVSAGEKVIMSCKSSQSLLNSGTRKNYLAWYQQKPGQSPKLLIFWASTRESGVPDRFTGSGSGTDFTLTISSFQAEDLAVYYCKQSYDLITFGPGTKLEIK
notes: Murine antibody from a hybridoma; also called murine PD-1 antibody 42G1
One may read the EC50 (read off the curve) as the concentration needed to bring the measured effect to its halfway point. Turning to B2, the results for the concentration giving a half-maximal response (EC50) (with human PD-1-hFc [1]; in [4]; with monkey PD-1-hFc [2]) were 0.0513 nM, 6.62 nM and 0.0595 nM, respectively. For the same molecule, in the experiment with human PD-1-hFc [3], the IC50 came to 4.5 nM. Moreover, in [5], the “EC50 (read off the curve)” value is around 7 nM.

B3: chimeric antibody 29C6-CH (antibody, human IgG4 S228P, kappa, V domains shown)
VH: QVQLEESGPELVKPGASVKISCKTSGYTFTEYTIYWVKQSHGKSLEWIGGINPKNGATLYNQKFKVKATLTVDKSSSTAYMELRSLTSEDSAVYYCVRDYHGNSHDSMDYWGQGTSVTVSS
VL: QIVLTQSPAIMSASPGEKVTITCSASSSVSYMHWFRQKPGTSPKLWIYYTSNLASGVPAHFSGSGSGTSYSLTISRMEAEDAATYYCQQRSDYPPTFGGGTKLEIKR
notes: Murine 29C6 variable regions fused to the IgG4 (S228P) heavy chain constant region and the human kappa constant region
Usually Kd stands for the free concentration of one partner at which half of the binding sites on the other are occupied at equilibrium, for simple one-to-one binding. For orientation: koff means a measure of how fast the partners let go of each other. The kon is the second-order rate constant of association. Regarding B3, in [6], the “EC50 (nM), cell activity for blocking PD-1/PD-L1 binding, luciferase reporter gene assay” value is 10.7 nM. Besides, the EC50 was found to be 0.17 nM with human PD-1-His [7], 0.171 nM in the experiment with monkey PD-1-hFc [8] and 0.115 nM with human PD-1-ECD-mFc. The “fold stronger affinity than the control antibody 1” value with human PD-1-His [9] was 7.3 times. Further, the IC50 turned out to be 1.15 nM with human PD-1-hFc [10]; 1.31 nM with human PD-1-hFc [11]; 1.7 ng/mL in experiment [12]; 1.73 nM with human PD-1-hFc [13]; 1.97 nM with human PD-1-hFc [14]. Further, the Kd amounted to 0.516 nM with human PD-1-His [15] and 0.88 nM with human PD-1-His [16]. For the same molecule, the koff with human PD-1-His [15] was found to be 0.000166 s⁻¹; with human PD-1-His [16], 0.000198 s⁻¹. The values for the kon with human PD-1-His [15] and in the experiment with human PD-1-His [16] were 322000 M⁻¹ s⁻¹ and 226000 M⁻¹ s⁻¹, respectively.

B4: murine antibody 29C6 (antibody, V domains shown)
VH: B3 VH
VL: QIVLTQSPAIMSASPGEKVTITCSASSSVSYMHWFRQKPGTSPKLWIYYTSNLASGVPAHFSGSGSGTSYSLTISRMEAEDAATYYCQQRSDYPPTFGGGTKLEIK
notes: Murine antibody from a hybridoma; also called murine PD-1 antibody 29C6
As for B4, the values for the concentration for a half-maximal effect (EC50) (in the experiment with human PD-1-hFc [1]; in experiment [4]; with monkey PD-1-hFc [2]) were 0.0355 nM, 3.12 nM and 0.0344 nM, respectively. Also, the 50% inhibitory concentration (IC50) with human PD-1-hFc [3] came to 2.93 nM. Moreover, in experiment [5], the half-maximal effective concentration (EC50 (read off the curve)) is around 3 nM.
